Source: the nanobody polyreactivity screen of Harvey et al. (2022)

Experiment: yeast display, Sf9 membrane polyspecificity reagent, FACS + sequencing; frameworks hold sequencing errors
How it was run: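 Using colony PCR, genes from sorted yeast display clones were amplified, then sequenced on MiSeq at 2 × 250 and filtered by CDR length. The clones had been stained with 10% biotinylated, detergent-solubilized Sf9 membrane reagent for 1 hour at 4 °C and sorted by FACS into low and high (top ~1%) gates on anti-HA and streptavidin fluorescence. Polyreactivity labels come from the gate of origin.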

Q: Which “polyreactivity (PSR sort gate)” value does the source give for “QVQLVESGGGLVQAGGSLRLSCAASGRIFYVNGMGWYRQAPGNERELVAAIRISGGRTYYADSVKGRFTISRDYAKYTVYFQMNSLKPEDTAVYFCAKRYYYPYAGYDYWGQGTQVTVSS” here?
A: high polyreactivity

Q: For “QVQLVESGGGLVQAGGSLRLSCAASGRIFYVYALGWYRQAPGKERELVAAIDWNGGTTYYADSVKGRFTISRDNAKNTVYLQMNSLKPEDTAVYYCAVSLQGYNQVDYYYWGQGTQVTVSS”, which “polyreactivity (PSR sort gate)” value is on record?
A: high polyreactivity

Q: With “QVQLVESGGGLVQAGGSLRLSCAASGRIFYVYAMGWYRQAPGKERELVAGIRSGGSTNYADSVKGRFTISRDNAKNTVYLLMNSLKPEDTAVYYCAVQSYGALSPQLVYRRYDYWGQGTQVTVSS” as the sequence, how does the “polyreactivity (PSR sort gate)” value read?
A: high polyreactivity

Q: With “QVQLVESGGGLVQAGGSLRLSCAASGRIFYVYAMGWYRQAPGKERELVATITYRGDTDYADSVKGRFTSSRDNAKNTVYLQMNSRKPEDTAVYYCAKDFEAGDDYFAYDYWGQGTQVTVSS” as the sequence, how does the “polyreactivity (PSR sort gate)” value read?
A: low polyreactivity

Q: Which “polyreactivity (PSR sort gate)” value does the source give for “QVQLVESGGGLVQAGGSLRLSCAASGRIFYVYTMGWYRQAPGKERELVAAISWSGGSTHYADSVKGRFTIARDNAKNTVYLQMNSLKPEDTAVYYCNKGVVSRVAFEYWGQGTQVTVSS” here?
A: low polyreactivity

Q: For “QVQLVESGGGLVQAGGSLRLSCAASGRIFYWNAMGWYRQAPGKEREFVAAISWSGGSTYADSVKGRFTISRDNAKNTVYLQMNSLKPEDTAVYYCATRVSRSFRAYDYWGQGTQVTVSS”, which “polyreactivity (PSR sort gate)” value is on record?
A: high polyreactivity

Q: With “QVQLVESGGGLVQAGGSLRLSCAASGRIFYYNAKGWYRQAPGKERELVATISRGGSTYYADSVKGRFTISRDNAKNTVDLQMNSLKPEDTAVYYCATRVLYYQSSYDYWGQGTQVTVSS” as the sequence, how does the “polyreactivity (PSR sort gate)” value read?
A: high polyreactivity

Q: Which “polyreactivity (PSR sort gate)” value does the source give for “QVQLVESGGGLVQAGGSLRLSCAASGRIFYYNAMGWYRQAPGKERELVASITWSGARTYYADSVKGRFTISRDNAKNTVYLQMNSLKPEDTAVYYCNAATSYYTYTYGYWGQGTQVTVSS” here?
A: high polyreactivity

Q: With “QVQLVESGGGLVQAGGSLRLSCAASGRIFYYNDMGWYRQAPGKERELVAAITWTDDGTYYADSVKGRFTISRDYAKNTVYLQMNSLKPEDTAVYYFAAETFYGFEYWGQGTQVTLSS” as the sequence, how does the “polyreactivity (PSR sort gate)” value read?
A: low polyreactivity

Q: With “QVQLVESGGGLVQAGGSLRLSCAASGRIFYYNGMGWYRQAPGKERELVAAISRGGSTYYADSVKGRFTISRDNAKNTVYLQMNSLKPEDTAVYYCAARWKPPYWGRYYYWGQGTQVTVSS” as the sequence, how does the “polyreactivity (PSR sort gate)” value read?
A: high polyreactivity

Q: With “QVQLVESGGGLVQAGGSLRLSCAASGRIFYYNGMGWYRQAPGKERELVAAITANGGSTYYADSVKGRFTISRDNAKHTVYLQMNSLKPEDTAVYYCAAVYQLYYSAGRGYDYWGQGTQVTVSS” as the sequence, how does the “polyreactivity (PSR sort gate)” value read?
A: high polyreactivity

Q: With “QVQLVESGGGLVQAGGSLRLSCAASGRIFYYNTMGWYRQAPGKERELVARITYSGGRTYYADSVKGRFTISRDNAKNTVYLQMNSLKPEDTAVYYCNAKPRYYQTGGGYWGQGTQVTVSS” as the sequence, how does the “polyreactivity (PSR sort gate)” value read?
A: high polyreactivity

Q: Which “polyreactivity (PSR sort gate)” value does the source give for “QVQLVESGGGLVQAGGSLRLSCAASGRIFYYNVMGWYRQAHGKERELVASISYSSTRTYYADSVKGRFTISRDNAKNTVYLQMNRLKQEDTAVYYCAVDTYAYRGVSYWSERTYYYWGQGTQVNVSS” here?
A: low polyreactivity

Q: With “QVQLVESGGGLVQAGGSLRLSCAASGRIFYYYAMGWSRQAPGKERELVAAITRRGGSTYYADSVKGRFTISRDNAKNTVYLQMNSLKPEDPADYYCAKPDRTGWLDGEYWGQGTQVTVSS” as the sequence, how does the “polyreactivity (PSR sort gate)” value read?
A: low polyreactivity

Q: For “QVQLVESGGGLVQAGGSLRLSCAASGRIFYYYAMGWYRPAPGKERELVAAINRDGGRTYYADSVKGRFTISRDNAKNTVYLQMNSLKPEDTAVYYCAASYGYVYTTSLDYWGQGTQVTVSS”, which “polyreactivity (PSR sort gate)” value is on record?
A: low polyreactivity

Q: For “QVQLVESGGGLVQAGGSLRLSCAASGRIFYYYAMGWYRQAPATERELFAGINSGGNTYADSVKGRFTISRDNAKNTVYLQMNSLKPEDTAVYYCATDFYSYAGGYYHHDHWGQGTQVTVSS”, which “polyreactivity (PSR sort gate)” value is on record?
A: high polyreactivity

Q: With “QVQLVESGGGLVQAGGSLRLSCAASGRIFYYYAMGWYRQAPGKERELVAAIRWSGGSTYYADSVKGRFTISRDNEKNTVYLQMNSLKPEDTAVYYCAADSRTNGYDYWGQGTQVTVSS” as the sequence, how does the “polyreactivity (PSR sort gate)” value read?
A: high polyreactivity

Q: For “QVQLVESGGGLVQAGGSLRLSCAASGRIFYYYAMGWYRQAPGKERELVAAISSIDGTTYYADSVKGRFTISRDNAKNTVYLQMNSLKPEDTAVYYCAAEDPADQYDYWGQGTQVTVSS”, which “polyreactivity (PSR sort gate)” value is on record?
A: high polyreactivity

Q: For “QVQLVESGGGLVQAGGSLRLSCAASGRIFYYYAMGWYRQAPGKERELVAAISSIGGSTYADSVKGRFTISRDNAKNTVYLQMNSLKPEDTAVYYCAADGFKRLYTQVAHVRYDYWGQGTQVTVSS”, which “polyreactivity (PSR sort gate)” value is on record?
A: low polyreactivity

Q: With “QVQLVESGGGLVQAGGSLRLSCAASGRIFYYYAMGWYRQAPGKERELVAAISWSGGSTYYADSVKGRFTISRDNAKNTVYLQMNSLKPEDTAVYYCAAESRKYREYYYWGQGTQVTVSS” as the sequence, how does the “polyreactivity (PSR sort gate)” value read?
A: high polyreactivity

Q: For “QVQLVESGGGLVQAGGSLRLSCAASGRIFYYYAMGWYRQAPGKERELVAVISRGGRTKYADSVKGRFTISRDNAKNTVYLQMNILKPEDTAVYYCAAYPSYYGDSGLRYDYWGQGTQVTVSS”, which “polyreactivity (PSR sort gate)” value is on record?
A: high polyreactivity

Q: Which “polyreactivity (PSR sort gate)” value does the source give for “QVQLVESGGGLVQAGGSLRLSCAASGRIFYYYDMGWYRQAPGKARELVAAITSAGITYYADSVKGRFTISRDNAKNTVYLQMNSLKPEDTAVYYCAVEFYDKRWPYRGGYWGQGTQVTVSS” here?
A: low polyreactivity

Q: With “QVQLVESGGGLVQAGGSLRLSCAASGRIFYYYTMGWYRPAPGKERELVARITGLTGRTYYADCVKGRFTISRDNGKNTVYLQMNSLKPEDTAVYYCNARYFRHYDYWGQGTQGTVSS” as the sequence, how does the “polyreactivity (PSR sort gate)” value read?
A: high polyreactivity

Q: With “QVQLVESGGGLVQAGGSLRLSCAASGRIFYYYTMGWYRQAPGKEREVVAAITKGDDDTSYADSVKGRFTISRDNAKNTVYVQMNSLKPEDTAVYYCAVEIVLVPFVVGYDYWGQGTQVTVSS” as the sequence, how does the “polyreactivity (PSR sort gate)” value read?
A: low polyreactivity

Q: With “QVQLVESGGGLVQAGGSLRLSCAASGRIGNTMGWYRQAPGKERELVATISSSGGSTYYADSVKGRFTISRDNAKNTVYLQMNSLKPEDTAVYYCAVEYYGYSTSGRYLSPYNYWGQGTQVTVSS” as the sequence, how does the “polyreactivity (PSR sort gate)” value read?
A: low polyreactivity

Q: With “QVQLVESGGGLVQAGGSLRLSCAASGRIGPNVMGWYRQPPGKERELVARITWRGGSTYYADSVKGRFTISRDNAKNTVYLQMNSLKPEDTAVYYCNARGHGGWGTSMYYWGQGTQVTVSS” as the sequence, how does the “polyreactivity (PSR sort gate)” value read?
A: high polyreactivity

Q: With “QVQLVESGGGLVQAGGSLRLSCAASGRIIAIYAMGWYRPAPGKERELVAAISWNSGRTNYADSVKGRFTISRDNAKNTVYLQMNSLKPEDTAVYYCAADGDRYLVSTSYPEYDYWGQGTQVTVTS” as the sequence, how does the “polyreactivity (PSR sort gate)” value read?
A: low polyreactivity

Q: With “QVQLVESGGGLVQAGGSLRLSCAASGRIIDRNDMGWYRQAPGKERELVAAISSSGSTNYADSVKGRFTISRDNAKNTVYLQMNSLKPEHTAGYYCADRWRSVLASGTRPVSFDYWGQGTQVTVSS” as the sequence, how does the “polyreactivity (PSR sort gate)” value read?
A: low polyreactivity

Q: For “QVQLVESGGGLVQAGGSLRLSCAASGRIIEHNAMGWYRQAPGKERELVAAINYSGGSTYYADSVKGRFTISRDNAKNTVYLQMNSLKPEDTAVYYCATRTGHWGQGTQVTVSS”, which “polyreactivity (PSR sort gate)” value is on record?
A: low polyreactivity

Q: Which “polyreactivity (PSR sort gate)” value does the source give for “QVQLVESGGGLVQAGGSLRLSCAASGRIIFRNAMGWYRQAPGKERELVAAISTSGGSTYYADSVKGRFTISRDNAKNTVYLQMNSLKPEDTAVYYWSKQFNSSPRRYYWGQGTQVTVSS” here?
A: high polyreactivity
